The test deals with MC3T3-E1 (mouse calvarial) osteoblast cells. Briefly: Mineralization assay: rescue of the inhibition of mineralization by sclerostin (ARS mineralization). The format is cell-based. The settings on record: for ARS mineralization relative to wildtype mineralization: additive alone, no O20221-1, compared with cells with no additives. The text has this: Mineralization (crystalline calcium phosphate formation) represents an in vitro model of bone formation. Using an assay in which the amount of mineralization is quantified by measuring total calcium after solubilization of deposited crystalline calcium phosphate, sclerostin was previously shown to inhibit mineralization in MC3T3-E1 (mouse calvarial) osteoblast cells. Li et al., J Bone Miner Res 24:578-588 (2008). Following the protocol described in Li et al., Compositions prepared in accordance with Example 1 or mixtures of the described composition components were assayed for their ability to rescue the inhibition of mineralization by sclerostin in MC3T3 osteoblast cells. This assay was used in the examples listed below.

Consider `COc1ccc2c3ccnc(C(F)(F)F)c3n(CCN3CCOCC3)c2n1` [O20221-1, 4-(2-(2-methoxy-8-(trifluoromethyl)-9H-pyrrolo[2,3-b:5,4-c′]dipyridin-9-yl)ethyl)morpholine], for which the “ARS mineralization, restoration of normal (wildtype) mineral” value (in presence of sclerostin, compared with wildtype mineralization (cells with no additives)) is “restores normal mineral”.

B1: sclerostin: ectopic sclerostin protein added to cells; inhibits mineralization in MC3T3 osteoblast cells (protein, UniProt Q9BQB4 24-213, looked up)
Sclerostin: QGWQAFKNDATEIIPELGEYPEPPPELENNKTMNRAENGGRPPHHPFETKDVSEYSCRELHFTRYVTDGPCRSAKPVTELVCSGQCGPARLLPNAIGRGKWWRPSGPDFRCIPDRYRAQRVQLLCPGGEAPRARKVRLVASCKCKRLTRFHNQSELKDFGTEAARPQKGRKPRPRARSAKANQAELENAY
For B1, the “ARS mineralization relative to wildtype mineralization” value was “inhibits normal mineralization”. Moreover, the “ARS mineralization relative to wildtype mineralization” value (listed as Sclerostin) is listed as “inhibits wildtype mineralization”.

For the origin of these results see patent US20250325556A1, “COMPOSITIONS FOR LOCAL BONE FORMATION” (OssiFi Therapeutics LLC, priority 2021, published 2025).
